T1: human interleukin 3 (IL3), expressed on microarray cells (human, UniProt P08700 20-152)
T1 construct: also called hIL3
T1 sequence: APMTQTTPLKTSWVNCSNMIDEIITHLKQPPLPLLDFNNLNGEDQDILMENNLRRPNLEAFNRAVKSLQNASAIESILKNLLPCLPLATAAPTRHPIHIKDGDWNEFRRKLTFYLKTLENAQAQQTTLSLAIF

T2: mouse LRP6-E1E2 (N-half, AA 20-628) tagged with Fc (mouse IgG2a) (mouse, UniProt O88572 20-628)
T2 construct: not shown: mouse IgG2a Fc
T2 sequence: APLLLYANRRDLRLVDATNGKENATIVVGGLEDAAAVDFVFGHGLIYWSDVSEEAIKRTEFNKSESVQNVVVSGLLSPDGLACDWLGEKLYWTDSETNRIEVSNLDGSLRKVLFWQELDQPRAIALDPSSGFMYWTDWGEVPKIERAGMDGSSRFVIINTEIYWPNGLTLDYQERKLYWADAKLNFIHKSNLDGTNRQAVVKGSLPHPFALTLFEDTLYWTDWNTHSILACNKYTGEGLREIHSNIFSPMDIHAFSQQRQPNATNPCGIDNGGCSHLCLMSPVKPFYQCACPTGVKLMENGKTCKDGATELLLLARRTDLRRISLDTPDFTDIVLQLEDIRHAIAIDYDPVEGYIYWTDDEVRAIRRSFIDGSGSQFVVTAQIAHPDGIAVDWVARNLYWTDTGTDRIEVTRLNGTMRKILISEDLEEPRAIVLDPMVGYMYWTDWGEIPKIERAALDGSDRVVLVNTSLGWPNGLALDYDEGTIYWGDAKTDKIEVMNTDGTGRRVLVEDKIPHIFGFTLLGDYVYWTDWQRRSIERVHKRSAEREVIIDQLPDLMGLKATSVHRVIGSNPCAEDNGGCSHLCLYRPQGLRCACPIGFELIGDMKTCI

T3: mouse LRP6-E3E4 (C-half, AA 629-1244) tagged with Fc (mouse IgG2a) (mouse, UniProt O88572 629-1244)
T3 construct: not shown: mouse IgG2a Fc
T3 sequence: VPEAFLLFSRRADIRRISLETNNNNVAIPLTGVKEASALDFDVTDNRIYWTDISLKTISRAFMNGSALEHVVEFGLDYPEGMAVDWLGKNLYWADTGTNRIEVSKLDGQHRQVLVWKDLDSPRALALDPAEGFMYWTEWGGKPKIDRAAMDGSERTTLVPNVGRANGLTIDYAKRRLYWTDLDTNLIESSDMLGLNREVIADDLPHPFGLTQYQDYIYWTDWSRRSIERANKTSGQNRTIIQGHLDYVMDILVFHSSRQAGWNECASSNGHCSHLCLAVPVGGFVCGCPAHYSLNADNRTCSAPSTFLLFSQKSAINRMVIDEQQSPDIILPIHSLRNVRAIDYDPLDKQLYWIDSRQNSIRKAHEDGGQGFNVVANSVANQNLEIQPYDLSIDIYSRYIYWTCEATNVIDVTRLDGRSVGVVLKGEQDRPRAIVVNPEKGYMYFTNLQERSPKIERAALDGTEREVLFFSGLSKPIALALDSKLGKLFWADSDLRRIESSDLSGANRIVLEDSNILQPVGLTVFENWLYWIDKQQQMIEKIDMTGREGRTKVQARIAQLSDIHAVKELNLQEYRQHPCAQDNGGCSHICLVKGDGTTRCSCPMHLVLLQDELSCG

B1: AAV.CAP-Mac (other)
chain: MAADGYLPDWLEDNLSEGIREWWALKPGAPQPKANQQHQDNARGLVLPGYKYLGPGNGLDKGEPVNAADAAALEHDKAYDQQLKAGDNPYLKYNHADAEFQERLKEDTSFGGNLGRAVFQAKKRLLEPLGLVEEAAKTAPGKKRPVEQSPQEPDSSAGIGKSGAQPAKKRLNFGQTGDTESVPDPQPIGEPPAAPSGVGSLTMASGGGAPVADNNEGADGVGSSSGNWHCDSQWLGDRVITTSTRTWALPTYNNHLYKQISNSTSGGSSNDNAYFGYSTPWGYFDFNRFHCHFSPRDWQRLINNNWGFRPKRLNFKLFNIQVKEVTDNNGVKTIANNLTSTVQVFTDSDYQLPYVLGSAHEGCLPPFPADVFMIPQYGYLTLNDGSQAVGRSSFYCLEYFPSQMLRTGNNFQFSYEFENVPFHSSYAHSQSLDRLMNPLIDQYLYYLSRTINGSGQNQQTLKFSVAGPSNMAVQGRNYIPGPSYRQQRVSTTVTQNNNSEFAWPGASSWALNGRNSLMNPGPAMASHKEGEDRFFPLSGSLIFGKQGTGRDNVDADKVMITNEEEIKTTNPVATESYGQVATNHQSAQLNTTKPIAQAQTGWVQNQGILPGMVWQDRDVYLQGPIWAKIPHTDGNFHPSPLMGGFGMKHPPPQILIKNTPVPADPPTAFNKDKLNSFITQYSTGQVSVEIEWELQKENSKRWNPEIQYTSNYYKSNNVEFAVNTEGVYSEPRPIGTRYLTRNL
notes: also called CAP-C1
B2: AAV9-X1.1 (other)
chain: MAADGYLPDWLEDNLSEGIREWWALKPGAPQPKANQQHQDNARGLVLPGYKYLGPGNGLDKGEPVNAADAAALEHDKAYDQQLKAGDNPYLKYNHADAEFQERLKEDTSFGGNLGRAVFQAKKRLLEPLGLVEEAAKTAPGKKRPVEQSPQEPDSSAGIGKSGAQPAKKRLNFGQTGDTESVPDPQPIGEPPAAPSGVGSLTMASGGGAPVADNNEGADGVGSSSGNWHCDSQWLGDRVITTSTRTWALPTYNNHLYKQISNSTSGGSSNDNAYFGYSTPWGYFDFNRFHCHFSPRDWQRLINNNWGFRPKRLNFKLFNIQVKEVTDNNGVKTIANNLTSTVQVFTDSDYQLPYVLGSAHEGCLPPFPADVFMIPQYGYLTLNDGSQAVGRSSFYCLEYFPSQMLRTGNNFQFSYEFENVPFHSSYAHSQSLDRLMNPLIDQYLYYLSRTIDGAATKNQTLKFSVAGPSNMAVQGRNYIPGPSYRQQRVSTTVTQNNNSEFAWPGASSWALNGRNSLMNPGPAMASHKEGEDRFFPLSGSLIFGKQGTGRDNVDADKVMITNEEEIKTTNPVATESYGQVATNHQSAQGNNTRSVAQAQTGWVQNQGILPGMVWQDRDVYLQGPIWAKIPHTDGNFHPSPLMGGFGMKHPPPQILIKNTPVPADPPTAFNKDKLNSFITQYSTGQVSVEIEWELQKENSKRWNPEIQYTSNYYKSNNVEFAVNTEGVYSEPRPIGTRYLTRNL
notes: also called AAV-X1.1; X1B10

How the values were obtained:
[1] = molecular target: T4, human pancreatic secretory granule membrane major glycoprotein GP2 (GP2), on cells (human, UniProt P55259 29-512); assay: cell microarray screen hit (membrane)
T4 construct: also called glycoprotein 2; hGP2
Experimental: After these controls, the six-capsid pool was tested in a full screen of approximately 6400 proteins, including 6000 human plasma membrane proteins and secreted and cell surface-tethered proteins, as well as approximately 400 heterodimers. […] To assign these hits to specific capsids, follow-up deconvolution screens were performed with each individual capsid from the pool (FIG. 12E). DNA oligos for the 22 identified hits, as well as the positive control CD86, were affixed in duplicate locations to new slides. A negative control condition with no AAV analyte and a positive control condition with CTLA4-Fc (CD86 binder) were also included.

[2] = molecular target: T1, human interleukin 3 (IL3), expressed on …; assay: cell microarray screen hit (title of Table 4)
[3] = molecular target: T2, mouse LRP6-E1E2 (N-half, AA 20-628) …; assay: SPR, target-Fc captured on protein A chip, AAV analyte (FIG. 14D)
[4] = molecular target: T3, mouse LRP6-E3E4 (C-half, AA 629-1244) …; assay: as above

T4 sequence (P55259 29-512 limits assumed): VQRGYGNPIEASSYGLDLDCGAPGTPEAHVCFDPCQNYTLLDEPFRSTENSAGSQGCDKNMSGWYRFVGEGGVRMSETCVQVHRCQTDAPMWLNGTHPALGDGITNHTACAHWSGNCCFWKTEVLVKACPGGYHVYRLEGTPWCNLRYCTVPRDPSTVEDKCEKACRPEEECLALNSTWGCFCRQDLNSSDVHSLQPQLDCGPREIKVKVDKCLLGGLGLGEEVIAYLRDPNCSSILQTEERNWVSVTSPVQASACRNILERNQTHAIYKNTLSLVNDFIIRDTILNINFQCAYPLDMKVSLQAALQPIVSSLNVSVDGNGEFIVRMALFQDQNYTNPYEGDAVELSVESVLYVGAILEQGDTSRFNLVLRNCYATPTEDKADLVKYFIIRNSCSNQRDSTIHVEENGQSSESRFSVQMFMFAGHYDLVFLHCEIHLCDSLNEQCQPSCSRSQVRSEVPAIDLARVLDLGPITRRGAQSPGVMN

Binder | binding result [1] | binding result [2] | binding result [3] | binding result [4]
B1 | binds | binds | binds | no binding
B2 | binds | binds | binds | no binding

Source: patent US20240139329A1 (CALIFORNIA INSTITUTE OF TECHNOLOGY, published 2024)
